Results published in the supplement of paper PMC10567573.

B1: MLL5 (parent)
chain: DCMGIDRQHIPDTYLCERCQPRNL

Variants of: B1
Assay: protein stability index of a GFP-peptide fusion (GPS, HEK-293T) (PSI 1-6); higher = more stable
Details: c terminus: a fixed tail appended
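Also: lentivirally expressed fusions sorted by FACS into six bins by GFP to DsRed ratio, PSI derived from sequencing read proportions per bin multiplied by bin number.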

Row | Variant | protein stability index
1 | D12V | 1.69
2 | D12R | 2.86
3 | D12I | 2.51
4 | D12K | 1.96
5 | D12E | 2.81
6 | D12N | 2.38
7 | D12M | 3.1
8 | D12T | 2.81
9 | D12S | 2.38
10 | D12F | 2.64
11 | D12Q | 2.67
12 | D12Y | 2.1
13 | D12C | 2.67
14 | D12L | 1.93
15 | D12P | 3.19
16 | D12A | 2.01
17 | D12H | 2.48
18 | D12G | 2.63
19 | L15C | 3.71
20 | L15H | 3.32
21 | L15S | 3.76
22 | L15Y | 2.28
23 | L15G | 3.43
24 | L15F | 2

Row | Variant | protein stability index
25 | L15P | 3.15
26 | L15W | 2.81
27 | L15I | 3.61
28 | L15N | 3.8
29 | L15R | 3.61
30 | L15T | 3.73
31 | L15V | 3.28
32 | L15M | 2.95
33 | L15K | 4
34 | L15A | 3.61
35 | L15E | 4.66
36 | L15Q | 2.99
37 | L15D | 3.69
38 | T13W | 2.7
39 | T13K | 3.24
40 | T13E | 3.71
41 | T13L | 2.04
42 | T13P | 3.33
43 | T13G | 3.31
44 | T13V | 3.34
45 | T13D | 3.54
46 | T13R | 3.63
47 | T13H | 3.36
48 | T13M | 2.89

Row | Variant | protein stability index
49 | T13Y | 2.15
50 | T13S | 3.66
51 | T13Q | 3.07
52 | T13I | 2.26
53 | T13N | 2.91
54 | T13C | 2.17
55 | T13A | 3.59
56 | T13F | 2.55
57 | E17K | 2.6
58 | E17S | 2.64
59 | E17W | 2.02
60 | E17P | 2.96
61 | E17M | 2.28
62 | E17D | 3.21
63 | E17V | 1.71
64 | E17Y | 2.5
65 | E17C | 2.32
66 | E17A | 2.89
67 | E17R | 2.47
68 | E17G | 2.39
69 | E17T | 3.07
70 | E17Q | 3.04
71 | E17H | 2.68
72 | E17L | 2.96

Row | Variant | protein stability index
73 | E17N | 3.35
74 | E17I | 1.94
75 | E17F | 2.25
76 | I10W | 2.37
77 | I10V | 2.45
78 | I10Y | 3.49
79 | C19G | 3.63
80 | C19P | 4.55
81 | C19I | 3.02
82 | C19L | 3.43
83 | C19E | 4.12
84 | C19M | 1.98
85 | C19D | 4.73
86 | C19H | 3.7
87 | C19Q | 3.88
88 | C19K | 3.67
89 | C19F | 3.14
90 | C19N | 4.06
91 | C19A | 4.26
92 | R18H | 3.18
93 | R18S | 3.12
94 | R18M | 2.74
95 | R18W | 2.25
96 | R18C | 2.89

Row | Variant | protein stability index
97 | R18V | 2.19
98 | R18E | 3.15
99 | R18Y | 2.23
100 | R18T | 3.15
101 | R18F | 2.87
102 | R18D | 3.81
103 | R18P | 3.15
104 | R18A | 2.57
105 | R18L | 2.84
106 | R18N | 3.58
107 | R18G | 3.6
108 | R18I | 2.9
109 | R18Q | 3.01
110 | R18K | 2.63
111 | Y14R | 3.88
112 | Y14D | 3.83
113 | Y14G | 3.35
114 | Y14P | 3.71
115 | Y14E | 4.21
116 | Y14M | 3.5
117 | Y14F | 2.89
118 | Y14T | 3.73
119 | Y14H | 4.12
120 | Y14A | 3.85

Row | Variant | protein stability index
121 | Y14C | 4.74
122 | Y14S | 3.32
123 | Y14K | 3.11
124 | Y14N | 3.15
125 | Y14L | 2.56
126 | Y14I | 3.21
127 | Y14V | 3.43
128 | Y14Q | 3.7
129 | Y14W | 3.26
130 | P11G | 2.96
131 | P11C | 4.15
132 | P11K | 2.62
133 | P11F | 2.59
134 | P11Q | 2.69
135 | P11S | 2.23
136 | P11D | 2.61
137 | P11R | 3.15
138 | P11L | 2.23
139 | P11V | 2.73
140 | P11M | 2.82
141 | P11E | 3.43
142 | P11A | 2.6
143 | P11W | 1.7
144 | P11H | 3.71

Row | Variant | protein stability index
145 | P11N | 4.19
146 | P11Y | 2.44
147 | P11T | 3.08
148 | P11I | 2.36
149 | C16G | 4.23
150 | C16S | 3.52
151 | C16Q | 3.79
152 | C16R | 3.67
153 | C16E | 3.65
154 | C16V | 3.21
155 | C16P | 3.73
156 | C16D | 3.91
157 | C16F | 3.13
158 | C16N | 3.7
159 | C16I | 3.44
160 | C16L | 3.36
161 | C16W | 2.9
162 | C16H | 3.58
163 | C16M | 3.7
164 | C16K | 3.41
165 | C16A | 3.56
166 | C16Y | 2.88
167 | C16T | 3.41
